For the test, the target named is T1, human MCAM-Fc fusion protein (human, UniProt P43121 24-559).
T1 construct: Made in house by fusing the extracellular domain of human MCAM to human IgG1, produced in CHO cells; also called hMCAM-Fc; not shown: human IgG1 (Fc part of the fusion)
T1 sequence: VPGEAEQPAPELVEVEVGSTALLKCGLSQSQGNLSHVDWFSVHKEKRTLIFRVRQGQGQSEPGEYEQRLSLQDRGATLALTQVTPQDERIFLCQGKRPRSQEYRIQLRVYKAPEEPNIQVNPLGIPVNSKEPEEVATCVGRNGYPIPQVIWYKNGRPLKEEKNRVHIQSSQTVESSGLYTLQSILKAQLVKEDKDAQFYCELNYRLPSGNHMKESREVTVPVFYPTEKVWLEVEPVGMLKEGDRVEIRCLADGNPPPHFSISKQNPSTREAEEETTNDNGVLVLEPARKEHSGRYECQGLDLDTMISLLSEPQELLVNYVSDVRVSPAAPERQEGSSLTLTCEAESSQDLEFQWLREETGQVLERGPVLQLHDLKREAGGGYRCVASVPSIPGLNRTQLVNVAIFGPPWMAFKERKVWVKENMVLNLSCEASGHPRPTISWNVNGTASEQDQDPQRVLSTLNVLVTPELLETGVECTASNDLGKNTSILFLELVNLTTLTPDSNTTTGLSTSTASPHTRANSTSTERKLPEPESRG
Kind of test: ELISA, MCAM-Fc captured via goat anti-human Fab. As for the experimental part: To determine the LAMA4 epitope(s)/domain(s) necessary for MCAM binding, recombinant MCAM-Fc (or Fc control) protein was prebound to plates via goat anti-human Fabs overnight. Truncated recombinant variants of the LAMA4 G domain (and Tau control protein) were assayed for their ability to bind MCAM-Fc protein as described in the Materials and Methods and as shown in FIG. 6. The results are presented in arbitrary units (A.U.) on the y-axis. […] Therefore, the LG1-3 modules of the G domain of LAMA4 mediate LAMA4-MCAM interactions.

B1: His-tagged recombinant LAMA4 G-domain variant with LG modules 4-5 (ligand)
chain: RNSHCHLSNSPRAIEHAYQYGGTANSRQEFEHLKGDFGAKSQFSIRLRTRSSHGMIFYVSDQEENDFMTLFLAHGRLVYMFNVGHKKLKIRSQEKYNDGLWHDVIFIRERSSGRLVIDGLRVLEESLPPTEATWKIKGPIYLGGVAPGKAVKNVQINSIYSFSGCLSNLQLNGASITSASQTFSVTPCFEGPMETGTYFSTEGGYVVLDESFNIGLKFEIAFEVRPRSSSGTLVHGHSVNGEYLNVHMKNGQVIVKVNNGIRDFSTSVTPKQSLCDGRWHRITVIRDSNVVQLDVDSEVNHVVGPLNPKPIDHREPVFVGGVPESLLTPRLAPSKPFTGCIRHFVIDGHPVSFSKAALVSGAVSINSCP
notes: also called LAMA4 variant containing the LG modules 4-5; LG4-5
With B1, the binding result was “no binding”.
